Values joined by “and” are separate entries in the source; they are usually repeats but may differ in a detail not shown here. Identical values can stand only once.
Columns and labels:
human ROR1 on cells [1] = target: T1, human ROR1 on cells (human, UniProt Q01973 30-937); assay: cell-based or functional assay
[2] = target: T2, human CD3 on Jurkat cells (human, UniProt P09693 23-182; P04234 22-171; P07766 23-207); assay: flow cytometry on Jurkat cells
T2 construct: GenBank NP_000064.1, NP_000723.1, NP_000724.1
T2 sequence (P09693 23-182 limits assumed, chain 1 of 3): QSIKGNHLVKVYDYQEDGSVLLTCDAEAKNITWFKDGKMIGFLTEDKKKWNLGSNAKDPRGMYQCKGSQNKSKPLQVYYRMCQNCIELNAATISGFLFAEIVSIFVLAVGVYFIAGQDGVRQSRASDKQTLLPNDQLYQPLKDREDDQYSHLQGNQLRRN
T2 sequence (P04234 22-171 limits assumed, chain 2 of 3): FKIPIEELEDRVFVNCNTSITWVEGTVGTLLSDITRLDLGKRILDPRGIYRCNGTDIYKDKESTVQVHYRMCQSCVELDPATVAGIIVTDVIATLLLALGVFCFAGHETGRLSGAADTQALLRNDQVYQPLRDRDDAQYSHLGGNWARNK
T2 sequence (P07766 23-207 limits assumed, chain 3 of 3): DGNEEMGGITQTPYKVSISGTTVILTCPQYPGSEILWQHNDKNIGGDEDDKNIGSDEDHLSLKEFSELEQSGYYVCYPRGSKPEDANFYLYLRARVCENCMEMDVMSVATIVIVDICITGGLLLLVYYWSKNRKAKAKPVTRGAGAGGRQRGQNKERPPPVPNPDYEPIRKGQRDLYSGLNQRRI
Description: (§1) To quantitate CD3 binding, 2.5E5 Jurkat cells were used for each condition. A 2× stock of the cells was made by resuspending the cells to 5E6/mL by placing in 50 μL of PBS with 2% FBS. Next, the cells were diluted with an equal volume of 2× stock of the test bispecific binding molecule. The cells and antibody were co-incubated on ice for 20 min. The cells were then washed 3 times with 300 μL of FACS buffer and were resuspended in 100 μL of goat anti-human Fc-PE conjugate antibody (Invitrogen cat. #12499882) at 1:500 dilution and incubated on ice with reduced light for 20 min. The cells were then washed 3 times with 300 μL of FACS buffer and fixed with 2% paraformaldehyde for 10 min at 25° C. The cells were washed 2 times with 300 μL of FACS buffer and analyzed on a Miltenyi MACSQuant Analyzer.

[3] = target: T3, recombinant human ROR1 extracellular domain (human, UniProt Q01973 30-406); assay: ELISA, immobilised ROR1 ECD, construct titrated
T3 construct: Bought (Acro Biosystems cat. R01-H522Y); whole entry named; also called ROR1-ECD; immobilized ROR1
T3 sequence (Q01973 30-406 limits assumed): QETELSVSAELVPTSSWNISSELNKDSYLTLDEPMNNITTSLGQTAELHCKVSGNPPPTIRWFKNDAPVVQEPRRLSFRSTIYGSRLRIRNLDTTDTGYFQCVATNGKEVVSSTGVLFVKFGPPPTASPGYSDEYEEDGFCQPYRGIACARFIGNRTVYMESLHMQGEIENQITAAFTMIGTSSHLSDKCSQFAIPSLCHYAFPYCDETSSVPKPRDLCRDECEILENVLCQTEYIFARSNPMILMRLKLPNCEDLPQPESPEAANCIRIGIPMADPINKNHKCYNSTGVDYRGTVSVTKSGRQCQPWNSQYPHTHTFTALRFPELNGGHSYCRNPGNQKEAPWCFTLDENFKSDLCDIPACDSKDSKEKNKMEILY
Description: A 96-well Costar-3366 plate was coated with 50 μL/well of 2 μg/mL […] (Acro Biosystems cat. #R01-H522Y) in PBS overnight at 4° C. The plate was rinsed once with PBS containing 0.05% Tween 20 (PBS-T) and blocked with 100 μL/well of 5% non-fat milk in PBS (5% M-P) for 1 h at 25° C. Antibody samples were serially diluted 2-fold using 5% M-P and were incubated for 1 h at 25° C. (50 μL/well). The plate was washed three times with PBS-T and 50 μL/well anti-human kappa, HRP conjugate (Southern Biotech cat. #2060-05) diluted 10,000-fold in 5% M-P was added for 1 h at 25° C. The plate was washed three times with PBS-T, developed with 50 μL/well 1-Step Ultra TMB-ELISA (Thermo Scientific cat. #34028). The reaction was terminated by the addition of 2 N H₂SO₄ and the A450 was determined using a Spectramax plate reader.
Next, the binding of bispecific binding molecules to ROR was characterized by ELISA using recombinantly-expressed extracellular domain of RORL. ROR was immobilized on a microtiter plate, the bispecific binding molecules were titrated, and binding was quantitated with an anti-human kappa-HRP reagent. Consistent with the cell binding data, all constructs bound ROR1 in a concentration-dependent manner (FIG. 6). Moreover, monovalent ROR1 constructs 13-15 bound less tightly than all but two of the bivalent constructs.

[4] = target: T4, soluble biotinylated human ROR1 extracellular domain (human, UniProt Q01973 30-406, biotinylated with EZ-Link Sulfo-NHS-LC-Biotin at a 1:5 molar ratio); assay: ELISA, captured construct, biotinylated ROR1 titrated
T4 construct: Acro Biosystems cat; whole entry named; also called b-ROR1; soluble b-ROR1
T4 sequence (Q01973 30-406 limits assumed): as above
Description: To measure the binding of bispecific constructs to soluble ROR1, a 96-well Costar-3366 plate was coated with 50 μL/well of 2 μg/mL goat anti-human kappa (Southern Biotech cat. #2060-01) in PBS overnight at 4° C. The plate was rinsed once with PBS-T, blocked with 100 μL/well 5% M-P for 1 h at 25° C., rinsed once with PBS-T, and 2 μg/mL of the bispecific binding molecule was added and incubated for 1 h at 25° C. The plate was washed three times with PBS-T. Biotinylated ROR1 was diluted serially, 3-fold in 5% M-P and was incubated for 1 h at 25° C. (50 μL/well). The plate was washed three times with PBS-T. To detect the binding of b-ROR1, 50 μL/well Neutravidin-HRP (Pierce cat. #31030) diluted 1:5000 in 1% BSA-PBS was added for 1 h at 25° C. The plate was washed three times with PBS-T, then developed with 50 μL/well 1-Step Ultra TMB-ELISA (Thermo Scientific cat. #34028). The reaction was terminated by the addition of 2 N H₂SO₄ and the A450 was determined using a Spectramax plate reader.
The stronger binding observed with bivalent constructs versus monovalent constructs in cell assays and ELISAs in which the antigen is immobilized is consistent with an avidity effect. To determine if this was the case, binding to soluble monomeric ROR1 was assessed by immobilizing the bispecific binding molecules on a microtiter plate coated with goat anti-human kappa antibody and titrating biotinylated RORL. All bispecific binding molecules were active in this format (FIG. 7), and in most cases, there were no notable differences between monovalent and bivalent constructs.

human ROR1 on cells [5] = target: T1, human ROR1 on cells; assay: flow cytometry on ROR1-transfected MEC cells after 24 h incubation with the construct
human ROR1 on cells [6] = target: T1, human ROR1 on cells; assay: flow cytometry on JeKo-1 cells
Description: ROR1 binding was quantitated using both ROR1-transfected MEC cells and JeKo-1 cells. For each condition, 2.5E5 cells were used. The cells were placed in 50 μL of PBS with 2% FBS. Next, the cells were diluted with an equal volume of 2× stock of the test bispecific binding molecule. The cells and antibody were co-incubated on ice for 20 min. The cells were then washed 3 times with 300 μL of FACS buffer and were resuspended in 100 μL of anti-human Fc-PE conjugate antibody (Invitrogen cat. #12499882) and incubated on ice with reduced light for 20 min. Subsequently, the cells were washed 3 times with 300 μL of FACS buffer and fixed with 2% paraformaldehyde for 10 min at 25° C. The cells then were washed 2 times with 300 μL of FACS buffer and analyzed on a Miltenyi MACSQuant Analyzer.
The influence of ROR expression levels on binding of the bispecific constructs was assessed by flow cytometry using JeKo-1 cells. JeKo-1 cells express lower levels of ROR (˜13,000 copies/cell) than the ROR1-transfected MEC cells (˜56,000 copies/cell). All constructs bound JeKo-1 cells (FIG. 5). […] Specifically, monovalent ROR1 constructs generally bound more weakly than the bivalent constructs (FIG. 5, Panel A, compare constructs 14 and 15 with other constructs; FIG. 5, Panel C, compare constructs 15-17 with other constructs).

[7] = target: T2, human CD3 on Jurkat cells; assay: flow cytometry on Jurkat cells (1 ug/mL construct on ice, washed, then 37 C)
Description: as §1
To quantitate internalization of the bispecific binding molecules, 2.5E5 Jurkat cells were co-incubated with 1 μg/mL of the bispecific binding molecule on ice for 20 min. The cells were then washed 3 times 300 μL with ice-cold FACS buffer and were resuspended in culture media and incubated at 37° C. At various times, cells were removed, washed with 300 μL ice-cold FACS buffer and processed as described above.

[8] = target: T3, recombinant human ROR1 extracellular …; assay: ELISA, Fab titrated on immobilized human ROR1

T1 sequence (Q01973 30-937 limits assumed): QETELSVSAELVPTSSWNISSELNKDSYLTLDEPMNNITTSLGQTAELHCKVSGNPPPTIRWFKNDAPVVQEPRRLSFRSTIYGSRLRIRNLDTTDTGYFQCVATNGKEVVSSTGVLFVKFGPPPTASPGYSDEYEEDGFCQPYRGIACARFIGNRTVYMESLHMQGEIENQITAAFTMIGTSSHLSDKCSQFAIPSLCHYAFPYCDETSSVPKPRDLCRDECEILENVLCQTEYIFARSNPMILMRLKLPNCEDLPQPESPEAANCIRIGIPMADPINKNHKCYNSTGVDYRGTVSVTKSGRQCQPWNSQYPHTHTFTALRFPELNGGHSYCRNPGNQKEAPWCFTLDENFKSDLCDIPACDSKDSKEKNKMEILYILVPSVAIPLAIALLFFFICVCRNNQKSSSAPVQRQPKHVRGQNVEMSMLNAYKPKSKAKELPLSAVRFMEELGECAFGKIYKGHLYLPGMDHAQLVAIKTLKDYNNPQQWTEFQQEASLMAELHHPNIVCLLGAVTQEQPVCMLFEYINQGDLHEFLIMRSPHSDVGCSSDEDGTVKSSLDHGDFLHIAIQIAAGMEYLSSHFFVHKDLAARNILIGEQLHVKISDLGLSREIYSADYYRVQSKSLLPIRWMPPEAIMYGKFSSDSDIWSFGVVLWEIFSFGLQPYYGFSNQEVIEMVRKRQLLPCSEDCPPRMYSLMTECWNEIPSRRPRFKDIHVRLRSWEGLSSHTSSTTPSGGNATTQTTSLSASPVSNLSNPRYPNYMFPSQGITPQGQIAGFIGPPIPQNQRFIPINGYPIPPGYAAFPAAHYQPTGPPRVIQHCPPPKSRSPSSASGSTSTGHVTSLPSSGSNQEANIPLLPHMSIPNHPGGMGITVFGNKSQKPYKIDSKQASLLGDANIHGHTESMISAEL

Binder	EC50, LDH release, Mino (human ROR1 on cells [1])	EC50, LDH release, ROR1-transfected MEC (human ROR1 on cells [1])	Max. LDH Release, Mino (human ROR1 on cells [1]) [%]	Max. LDH Release, ROR1-transfected MEC (human ROR1 on cells [1]) [%]	binding result [2]	Kd [3] [nM]	Kd [4] [nM]	EC50 (read off the curve) (human ROR1 on cells [5]) [ng/mL]	EC50 (read off the curve) (human ROR1 on cells [6]) [ng/mL]	binding result [7]	EC50, LDH release, A549 (human ROR1 on cells [1])	EC50, LDH release, A4573 (human ROR1 on cells [1])	EC50, LDH release, JeKo-1 (human ROR1 on cells [1])	EC50, LDH release, Saos-2 (human ROR1 on cells [1])	EC50 (read off the curve) [8] [nM]
Bispecific construct 7 (bispecific antibody, human IgG1, kappa, ROR1 arm Ab1; valency 2/2) heavy: not shown light: DIVMTQTPLSLPVTPGEPASISCRASKSISKYLAWYQQKPGQAPRLLIYSGSTLQSGIPPRFSGSGYGTDFTLTINNIESEDAAYYFCQQHDESPYTFGEGTKVEIKRTVAAPSVFIFPPSDEQLKSGTASVVCLLNNFYPREAKVQWKVDNALQSGNSQESVTEQDSKDSTYSLSSTLTLSKADYEKHKVYACEVTHQGLSSPVTKSFNRGECGGGGSGGGGSQVQLVQSGGGVVQPGRSLRLSCKASGYTFTRYTMHWVRQAPGKGLEWIGYINPSRGYTNYNQKVKDRFTISRDNSKNTLYLQMDSLRAEDTAVYYCARYYDDHYSLDYWGQGTTVTVSSGGGGSGGGGSGGGGSGGGGSDIQMTQSPSSLSASVGDRVTITCSASSSVSYMNWYQQKPGKAPKRWIYDTSKLASGVPSRFSGSGSGTDFTFTISSLQPEDIATYYCQQWSSNPFTFGQGTKLEIK	0.97 ng/mL and 4.9 pM	1.3 ng/mL and 6.5 pM	50	55	binds	0.05	0.118	~5	–	–	–	–	–	–	–
Bispecific construct 1 (bispecific antibody, human IgG1, kappa, ROR1 arm Ab1; CD3 valency 2, ROR1 valency 2) heavy: not shown light: DIVMTQTPLSLPVTPGEPASISCRASKSISKYLAWYQQKPGQAPRLLIYSGSTLQSGIPPRFSGSGYGTDFTLTINNIESEDAAYYFCQQHDESPYTFGEGTKVEIKRTVAAPSVFIFPPSDEQLKSGTASVVCLLNNFYPREAKVQWKVDNALQSGNSQESVTEQDSKDSTYSLSSTLTLSKADYEKHKVYACEVTHQGLSSPVTKSFNRGEC	–	11 ng/mL and 55 pM	–	42	binds	0.2	0.193	~3	–	–	–	–	–	–	–
Bispecific construct 2 (bispecific antibody, human IgG1, kappa, anti-CD3 scFv Ab9 (OKT3-based); ROR1 arm Ab1; valency 2/2) heavy: not shown light: DIVMTQTPLSLPVTPGEPASISCRASKSISKYLAWYQQKPGQAPRLLIYSGSTLQSGIPPRFSGSGYGTDFTLTINNIESEDAAYYFCQQHDESPYTFGEGTKVEIKRTVAAPSVFIFPPSDEQLKSGTASVVCLLNNFYPREAKVQWKVDNALQSGNSQESVTEQDSKDSTYSLSSTLTLSKADYEKHKVYACEVTHQGLSSPVTKSFNRGEC	–	5 ng/mL and 25 pM	–	50	–	0.041	0.129	–	~20	binds	–	–	–	–	–
Bispecific construct 8 (bispecific antibody, human IgG1, kappa, anti-CD3 scFv Ab9 (OKT3-based); ROR1 arm Ab1; valency 2/2) heavy: not shown light: DIVMTQTPLSLPVTPGEPASISCRASKSISKYLAWYQQKPGQAPRLLIYSGSTLQSGIPPRFSGSGYGTDFTLTINNIESEDAAYYFCQQHDESPYTFGEGTKVEIKRTVAAPSVFIFPPSDEQLKSGTASVVCLLNNFYPREAKVQWKVDNALQSGNSQESVTEQDSKDSTYSLSSTLTLSKADYEKHKVYACEVTHQGLSSPVTKSFNRGECGGGGSGGGGSQVQLVQSGAEVKKPGASVKVSCKASGYTFTRYTMHWVRQAPGQGLEWMGYINPSRGYTNYNQKFKDRVTLTTDKSSSTAYMELSSLRSEDTAVYYCARYYDDHYSLDYWGQGTLVTVSSGGGGSGGGGSGGGGSGGGGSDIQMTQSPSSLSASVGDRVTITCSASSSVSYMNWYQQKPGKAPKRLIYDTSKLASGVPSRFSGSGSGTDFTLTISSLQPEDFATYYCQQWSSNPFTFGQGTKLEIK	0.95 ng/mL and 4.8 pM	–	53	–	–	0.098	0.151	–	–	binds	3.39 ng/mL and 17.1 pM	1.2 ng/mL and 6.1 pM	1.62 ng/mL and 8.1 pM	2.92 ng/mL and 14.7 pM	–
parental Ab1 Fab (WT) (Fab, V domains shown, Tested as Fab; also called parental Fab; parental antibody) VH: QVQLQESGPGLVKPSQTLSLTCTVSGYAFTAYNIHWVRQAPGQGLEWMGSFDPYDGGSSYNQKFKDRLTISKDTSKNQVVLTMTNMDPVDTATYYCARGWYYFDYWGHGTLVTVSS VL: DIVMTQTPLSLPVTPGEPASISCRASKSISKYLAWYQQKPGQAPRLLIYSGSTLQSGIPPRFSGSGYGTDFTLTINNIESEDAAYYFCQQHDESPYTFGEGTKVEIKR	–	–	–	–	–	–	–	–	–	–	–	–	–	–	~6
